Patent publication US11471494B2, “Microorganisms programmed to produce immune modulators and anti-cancer therapeutics in tumor cells” (Synlogic Operating Company, Inc., priority 2017, dated 2022)

T1: mCD40 (Mus musculus, UniProt P27512)
T1 sequence (P27512 20-289): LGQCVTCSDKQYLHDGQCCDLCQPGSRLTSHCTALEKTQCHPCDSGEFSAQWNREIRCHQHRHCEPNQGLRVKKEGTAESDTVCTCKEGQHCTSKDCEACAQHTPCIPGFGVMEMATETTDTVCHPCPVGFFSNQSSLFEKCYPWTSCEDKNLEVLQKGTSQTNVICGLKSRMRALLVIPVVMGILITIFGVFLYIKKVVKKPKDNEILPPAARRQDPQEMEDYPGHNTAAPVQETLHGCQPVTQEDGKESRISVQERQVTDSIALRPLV

T2: mCD47 (Mus musculus, UniProt Q61735)
T2 sequence (Q61735 19-303): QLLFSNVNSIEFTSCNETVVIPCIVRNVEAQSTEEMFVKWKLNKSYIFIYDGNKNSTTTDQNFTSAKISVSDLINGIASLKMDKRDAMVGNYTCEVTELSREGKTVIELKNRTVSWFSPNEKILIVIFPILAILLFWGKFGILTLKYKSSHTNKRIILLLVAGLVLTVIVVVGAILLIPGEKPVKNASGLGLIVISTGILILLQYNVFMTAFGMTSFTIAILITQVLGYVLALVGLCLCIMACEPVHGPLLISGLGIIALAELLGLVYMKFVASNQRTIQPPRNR


Columns and labels:
[1] = CD40 ELISA binding assay, control coatings; details: clarified supernatant
anti-mCD40L antibody = assay: CD40 ELISA binding assay of supernatants, detection by antibody; details: clarified supernatant
mCD40 = target: T1, mCD40; assay: CD40 ELISA binding assay of supernatants; details: clarified supernatant
[2] = SIRPα/CD47 ELISA binding assay, control coatings; details: supernatant
mCD47 = target: T2, mCD47; assay: SIRPα/CD47 ELISA binding assay of supernatants; details: supernatant

Molecule | ELISA signal, coating IgG [1] | ELISA signal, coating PBS [1] | ELISA signal, coating Anti-mCD40L (anti-mCD40L antibody) | ELISA signal, coating mCD40 (mCD40) | ELISA signal, coating IgG [2] | ELISA signal, coating PBS [2] | ELISA signal, coating mCD47 (mCD47)
Secreted CD40-L2: soluble form of murine CD40L secreted by SYN3367, in clarified supernatant (protein, left off: small tags and cut ends) MQRGDEDPQIAAHVVSEANSNAASVLQWAKKGYYTMKSNLVMLENGKQLTVKREGLYYVYTQVTFCSNREPSSQRPFIVGLWLKPSSGSERILLKAANTHSSSQLCEQQSVHLGGVFELQAGASVFVNVTEASQVIHRVGFSSFGLLKL | 0.052 | 0.05 | 0.825 | 0.639 |  |  | 
Secreted CD40-L1: extracellular portion of murine CD40L secreted by SYN3366, in clarified supernatant (protein, left off: small tags and cut ends, extracellular portion of murine CD40L secreted by SYN3366, in clarified supernatant) HRRLDKVEEEVNLHEDFVFIKKLKRCNKGEGSLSLLNCEEMRRQFEDLVKDITLNKEEKKENSFEMQRGDEDPQIAAHVVSEANSNAASVLQWAKKGYYTMKSNLVMLENGKQLTVKREGLYYVYTQVTFCSNREPSSQRPFIVGLWLKPSSGSERILLKAANTHSSSQLCEQQSVHLGGVFELQAGASVFVNVTEASQVIHRVGFSSFGLLKL | 0.052 | 0.049 | 0.394 | 0.231 |  |  | 
Secreted anti-mCD47 scFv: anti-mCD47 scFv secreted by engineered Nissle (SYN3161), in supernatant (protein) scFv: QVKLLQSGAALVKPGASVKMSCQASGYSFTDYWVTWVKQSHGQSLEWIGEIYPSNTVTNFNDNFKGKATLTVDKSTSTAYMELSRLTSEDSAIYYCTRIGNSGYRVGWFIYWGQGTLVTVLSGGGGSGGGGSGGGGSDTVLTQSPALAVSPGERVTISCKASESVSSHMHWYQQKPGQQPKLLIYKASNLASGVPARFSGSGSGTDFTLTIDPVEADDTATYFCQQGWNGPFTFGAGTRLELKRADAAGSGELGGSGKPIPNPLLGLDSTGSGHHHHHH |  |  |  |  | 0.067 | 0.053 | 0.527
